The values below come from patent US12269859B2, “Synthetic immune receptors and methods of use thereof” (Angeles Therapeutics, Inc., priority 2016, dated 2025).

The test system of this experiment is target antigen-expressing cell line. Briefly: Jurkat NFAT-GFP assay, coculture with target cell lines expressing the respective target antigen (summary Table 10A). The class given is cell-based, human. Further details: key: The signs +/−, +, 2+ etc. after the name of the cell lines indicate the relative degree of positivity on the Jurkat-NFAT-GFP assay as measured by the % GFP positive cells; +: relative degree of positivity on the Jurkat-NFAT-GFP assay as measured by the % GFP positive cells; 2+: relative degree of positivity on the Jurkat-NFAT-GFP assay as measured by the % GFP positive cells. A digest of the protocol: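 Coculture of SIR-bearing Jurkat NFAT-GFP reporters with target cells, ~1:2 E:T, ~4–18 h. FACS quantified % GFP+ cells, ranked semi-quantitatively against parental Jurkat-NFAT-GFP.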

B1: 021517-I01 (protein)
chain: MALPVTALLLPLALLLHAARPLEGKPIPNPLLGLDSTGSGEDLKNVFPPEVAVFEPSKAEIAHTQKATLVCLATGFYPDHVELSWWVNGKEVHSGVCTDPQPLKEQPALNDSRYCLSSRLRVSATFWQNPRNHFRCQVQFYGLSENDEWTQDRAKPVTQIVSAEAWGRADCGITSASYHQGVLSATILYEILLGKATLYAVLVSALVLMAMVKRKDSRGRAKRSGSGATNFSLLKQAGDVEENPGPTSMALPVTALLLPLALLLHAARPQSVVTQPPSVSGAPGQRVTISCTGSSSNIGAGYDVHWYQQLPGTAPKLLIYGNSNRPSGVPDRFSGSKSGTSASLAITGLQAEDEADYYCQSYDSSLSGSYVFGTGTKLTVLGGGGGSGGGGSGGGGSEVQLVETGGNLVQPGASLRLSCAASGFSFSGTAMHWVRQAPGKGLEWVSTISSTGRSTYYRDSVKGRFTISRDNSKNTLYLQMNSLRGEDTAVYYCARVSFDYWGQGTLVTVSSTREQKLISEEDGSGIQNPDPAVYQLRDSKSSDKSVCLFTDFDSQTNVSQSKDSDVYITDKCVLDMRSMDFKSNSAVAWSNKSDFACANAFNNSIIPEDTFFPSSDVPCDVKLVEKSFETDTNLNFQNLSVIGFRILLLKVAGFNLLMTLRLWSSRAKRSGSGVKQTLNFDLLKLAGDVESNPGPSRGHMTEYKPTVRLATRDDVPRAVRTLAAAFADYPATRHTVDPDRHIERVTELQELFLTRVGLDIGKVWVADDGAAVAVWTTPESVEAGAVFAEIGPRMAELSGSRLAAQQQMEGLLAPHRPKEPAWFLATVGVSPDHQGKGLGSAVVLPGVEAAERAGVPAFLETSAPRNLPFYERLGFTVTADVEVPEGPRTWCMTRKPGA
On to B1, for which, where the note is “coculture with L363 cells”, the “NFAT-GFP ASSAY Positive Cell lines” value is recorded as “L363 (+/−)”.

B2: 031517-Q04 (protein)
chain: MALPVTALLLPLALLLHAARPLEGKPIPNPLLGLDSTGSGEDLKNVFPPEVAVFEPSKAEIAHTQKATLVCLATGFYPDHVELSWWVNGKEVHSGVCTDPQPLKEQPALNDSRYCLSSRLRVSATFWQNPRNHFRCQVQFYGLSENDEWTQDRAKPVTQIVSAEAWGRADCGITSASYHQGVLSATILYEILLGKATLYAVLVSALVLMAMVKRKDSRGRAKRSGSGATNFSLLKQAGDVEENPGPTSMALPVTALLLPLALLLHAARPQSVVTQPASVSGSPGQSITISCTGTSSDVGGYNYVSWYQQHPGKAPKLMIYDVSKRPSGVSNRFSGSKSGNTASLTISGLQAEDEADYYCSSYTSSSTLVFGGGTKLTVLGGGGGSGGGGSGGGGSEVQLVESGGAFVQPGGSLRLSCAASGFTFSSYAMTWVRQAPGKGLEWVSTISGRGRSTFYADSVKGRFTISRDNSKNTLYLQMNSLRAEDTAVYYCARYYHAGAFDLWGQGTLVTVSSTREQKLISEEDGSGIQNPDPAVYQLRDSKSSDKSVCLFTDFDSQTNVSQSKDSDVYITDKCVLDMRSMDFKSNSAVAWSNKSDFACANAFNNSIIPEDTFFPSSDVPCDVKLVEKSFETDTNLNFQNLSVIGFRILLLKVAGFNLLMTLRLWSSRAKRSGSGVKQTLNFDLLKLAGDVESNPGPSRGHMTEYKPTVRLATRDDVPRAVRTLAAAFADYPATRHTVDPDRHIERVTELQELFLTRVGLDIGKVWVADDGAAVAVWTTPESVEAGAVFAEIGPRMAELSGSRLAAQQQMEGLLAPHRPKEPAWFLATVGVSPDHQGKGLGSAVVLPGVEAAERAGVPAFLETSAPRNLPFYERLGFTVTADVEVPEGPRTWCMTRKPGA
On to B2, for which, under “coculture with L363 cells”, the “NFAT-GFP ASSAY Positive Cell lines” value was “L363 (+/−)”.

B3: 111516-M03 (protein)
chain: MALPVTALLLPLALLLHAARPLEGKPIPNPLLGLDSTGSGEDLKNVFPPEVAVFEPSKAEIAHTQKATLVCLATGFYPDHVELSWWVNGKEVHSGVCTDPQPLKEQPALNDSRYCLSSRLRVSATFWQNPRNHFRCQVQFYGLSENDEWTQDRAKPVTQIVSAEAWGRADCGITSASYHQGVLSATILYEILLGKATLYAVLVSALVLMAMVKRKDSRGRAKRSGSGATNFSLLKQAGDVEENPGPTSMALPVTALLLPLALLLHAARPDIVLTQSPLSLAVSLGQPAIISCKASQSVSFAGTSLMHWYHQKPGQQPRLLIYRASNLEAGVPDRFSGSGSKTDFTLTISPVEAEDAATYYCQQSREYPYTFGGGTKLEIKRGGGGSGGGGSGGGGSQVQLVQSGAEVVKPGASVKISCKASGYTFTGYFMNWVKQSPGQSLEWIGRIHPYDGDTFYNQKFQGKATLTVDKSSNTAHMELLSLTSEDFAVYYCTRYDGSRAMDYWGQGTTVTVSSTREQKLISEEDGSGIQNPDPAVYQLRDSKSSDKSVCLFTDFDSQTNVSQSKDSDVYITDKCVLDMRSMDFKSNSAVAWSNKSDFACANAFNNSIIPEDTFFPSSDVPCDVKLVEKSFETDTNLNFQNLSVIGFRILLLKVAGFNLLMTLRLWSSRAKRSGSGVKQTLNFDLLKLAGDVESNPGPSRGHMTEYKPTVRLATRDDVPRAVRTLAAAFADYPATRHTVDPDRHIERVTELQELFLTRVGLDIGKVWVADDGAAVAVWTTPESVEAGAVFAEIGPRMAELSGSRLAAQQQMEGLLAPHRPKEPAWFLATVGVSPDHQGKGLGSAVVLPGVEAAERAGVPAFLETSAPRNLPFYERLGFTVTADVEVPEGPRTWCMTRKPGA
modifications: Polynucleotide encoding a Synthetic Immune Receptor (SIR)
As for B3, the “NFAT-GFP ASSAY Positive Cell lines” value reads like this: (coculture with LoVo cells) “(+/−)”; (coculture with SKOV3 cells) “SKOV3 (+), LoVo”.

B4: 101216-Y07 (protein)
chain: MALPVTALLLPLALLLHAARPDIQMTQSPSSLSASVGDRVTITCRASQGISSWLAWYQQKPEKAPKSLIYAASSLQSGVPSRFSGSGSGTDFTLTISSLQPEDFATYYCQQYNSYPPTFGGGTKVEIKLEGKPIPNPLLGLDSTGSGEDLKNVFPPEVAVFEPSKAEIAHTQKATLVCLATGFYPDHVELSWWVNGKEVHSGVCTDPQPLKEQPALNDSRYCLSSRLRVSATFWQNPRNHFRCQVQFYGLSENDEWTQDRAKPVTQIVSAEAWGRADCGITSASYHQGVLSATILYEILLGKATLYAVLVSALVLMAMVKRKDSRGRAKRSGSGATNFSLLKQAGDVEENPGPTSMDWIWRILFLVGAATGAHSFEEVQLVESGGGLVQPGESLRLSCVASGFTFSRYKMNWVRQAPGKGLEWVSYISRSGRDIYYADSVKGRFTISRDNAKNSLYLQMNSLRDEDTAVYYCAGTVTTYYYFGMDVWGHGTTVTVSSTREQKLISEEDGSGIQNPDPAVYQLRDSKSSDKSVCLFTDFDSQTNVSQSKDSDVYITDKCVLDMRSMDFKSNSAVAWSNKSDFACANAFNNSIIPEDTFFPSSDVPCDVKLVEKSFETDTNLNFQNLSVIGFRILLLKVAGFNLLMTLRLWSSRAKRSGSGVKQTLNFDLLKLAGDVESNPGPSRGHMTEYKPTVRLATRDDVPRAVRTLAAAFADYPATRHTVDPDRHIERVTELQELFLTRVGLDIGKVWVADDGAAVAVWTTPESVEAGAVFAEIGPRMAELSGSRLAAQQQMEGLLAPHRPKEPAWFLATVGVSPDHQGKGLGSAVVLPGVEAAERAGVPAFLETSAPRNLPFYERLGFTVTADVEVPEGPRTWCMTRKPGA
modifications: Synthetic Immune Receptor (SIR)
Consider B4, for which the “NFAT-GFP ASSAY Positive Cell lines” value reads like this: (coculture with H460 cells) “H460 (+/−), HCT116”; (coculture with HCT116 cells) “(+/−)”.
